Data as given in publication PMC6991139 (ACS nano, 2019).

How the values were obtained:
[1] = molecular target: PP7-PP7 single-chain coat protein dimer particle (PP7 virus (Leviviridae)) (UniProt P03630); assay: cryo-EM structure
[2] = molecular target: PP7-ZZ particle (ZZ-domains fused to the C-terminus of the PP7 CP) (PP7 virus (Leviviridae)); assay: SEC + other: dynamic light scattering + other: TEM
[3] = molecular target: ZZ-PP7 particle (ZZ-domains added to the N-terminus of the PP7 CP) (PP7 virus (Leviviridae)); assay: cryo-EM structure
[4] = molecular target: the molecule itself; assay: SEC + other: dynamic light scattering + other: TEM

Work on “PP7-PP7 single-chain coat protein dimer particle (from UniProt P03630 1-128; P03630 1-128)” yielded a stoichiometry N [1] of 120 copies.

With “PP7-ZZ particle (ZZ-domains fused to the C-terminus of the PP7 CP)” the stoichiometry N [2] was 180 per capsid.

With “ZZ-PP7 particle (ZZ-domains added to the N-terminus of the PP7 CP)” the stoichiometry N [3] was 180 per capsid.

B1: wild-type PP7 virus-like particle (PP7 coat protein) (natural protein)
chain: MSKTIVLSVGEATRTLTEIQSTADRQIFEEKVGPLVGRLRLTASLRQNGAKTAYRVNLKLDQADVVDCSTSVCGELPKVRYTQVWSHDVTIVANSTEASRKSLYDLTKSLVATSQVEDLVVNLVPLGR
B1: binds [4].
